# The nanobody polyreactivity screen of Harvey et al. (2022)
# Assay: yeast display, Sf9 membrane polyspecificity reagent, FACS + sequencing; frameworks hold sequencing errors
# Method in brief: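 In a synthetic yeast display library (Saccharomyces cerevisiae BJ5465), nanobody expression was induced with galactose for 36–48 hours. FACS gates were set low and high (top ~1%) using anti-HA fluorescence for expression and streptavidin fluorescence for binding of the Sf9 membrane reagent. Each polyreactivity label is drawn from the gate of origin.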
row,Sequence,polyreactivity (PSR sort gate)
1,QVQLVESGGGLVQAGGSLRLSCAASGIILYGYSMGWYRQAPGKERELVAAISWDGGSTYYADSVKGRFTISRDNAKNTVYLQMISLIPEDTAVYYCNALGGSEYDYWGQGTQVTVSS,low polyreactivity
2,QVHLVESGGGLVQAGGSLRLSCAASGSTLSFYAMGWYRQAPGKERELVAAISYSTGTTYYADSVKGRFTISRDNAKNTVYLQMNSLKPEDSAVYYCAARWVWLHSRYDYWGQGTQVTVSS,high polyreactivity
3,QVQLVESGGGLDQAGGSLRLSCAASGRTFEQYAMGWYRQAPGKVRELVAAISGSGGSTFYADSVKGRFTISRDNAKNTVYLQMNSLKPEDTAVYYCADKYDGSYVGLYWYSMNYCGQGTQVTVSS,low polyreactivity
4,QVQLVESGGGLVQAGGSLRLSCAASGSTFAPYAMGWYRQAPGKERELVAVITWSGGRTYYADSVKGRFTISRDNAKNTVYLQMNSLKPEDTAVYYCNDVPLLQGFNYWGQGTQGTVSS,high polyreactivity
5,QVQLVESGGGLVQAGGSLRLSCAASGSTFWVNALGWSRQAPGKERELVAVITVTGSRTYYADSVKGRFTISRDNAKNTVYLQMNTLKPEDTAVYYCAADRRRVQYKFDYWGQGTQVTVSS,low polyreactivity
6,QVQLVESGGGLVQAGGSLRLSCAASGRIFNSYAMGWYRQAPGKERELVAAISSGGSTYYADSVKGRFTFSRDNAKNTVYLQMNSLKPEDTAVYYCADRIWTGRGRKLGYGYDYWGQGTQVTVSS,low polyreactivity
7,QVQLEESGGGLLQAGGSLRLSCAASGRTLGGYTMGWYRPAPGKERELVSAITTGGSTNYADSVKGRFTISRDNAKNTVYLQMNSLKPEDTAVYFCATELVFDKRYWYDYWGQGSQVTVSS,low polyreactivity
8,QLQLVESGGGLVQAGGSLRLSCAASGYIFGWYAMGWYRQAPGKERELVATIDWSGDSTYYADSVKGRFTISRDNAKNTVYLQLNSLKPEATAVYYCAVGYSYYPSDEFDYWGQGTQVTVSS,low polyreactivity
9,QVQLVESGGGLVQAGGSLRLSCAASGRTFYLYAMGWYRQAPGKERELVAAITSAGSTNYADSVKGRFTISRDNAKNTVYLQMNSLKPEDSAVYYCNAYKRGYLYRYNYWGQGTQVTLSS,high polyreactivity
10,QVQLVESGGGLVQAGGSLRLSCAASGRIFFYYAMGWYRQAPGKERELVAAISSGGGSTYYADSVKGRFTISRDNAKNTVYLQMNSLKPEDTAVYYCAARTYRRRYLGWSQYVGPYDYWGQVTQVTVSS,high polyreactivity
11,QVQLVESGGGLVQAGGSLRLSCAASGRTFTKYAKGWYRQAPGKERELVAAISNSGGSTFYADSVKGRFTISRDNAKNTVYLQMNSLKPEDTAVYYCAVDLGDTQYVPFDYWGQGTQVTVSS,low polyreactivity
12,QVQLQESGGGLVQVGGSQRLSCAASGNIFYNYAMGWYRHAQGKEREFDATINHGTSINYADSVKGRFTISRDNAKNTVYLQMNSLKPEDTAVYYCAARVVRYGYKYYYWGQGTQVTLSS,low polyreactivity
13,QVQLVESGGGLVQAGGSLRLSCAASGFTFTTYAMGWYRQAPGKERELVARISRRSGSTYYADSVKGRFTISRDNAKYTVYLQMNSLKPEDTAVYYCNADVDRSTTIFDYWGQGTQVTVSS,high polyreactivity
14,QVQLVESGGGLVQAGGSLRLSCAASGRIFKYYTLGWYRQAPGKERELVAAITSRGGTTYYADSVKGRFTISRDNAKNTVYLQMNSLKPEDTAVYDCAKKRVFRHYYYYATYDYWGQGTQVTVSS,low polyreactivity
15,QVQLVESGGGLVQAGGSLRLSCAASGFTFYLNAMGLYRQAPGKERELVAGISWRGGRTYYADSVKGRFTISRDNAKNSVYLQMNSLKAEDTAVYYCAAVTYSFQKTDYYWGQGTQVTVSS,high polyreactivity
16,QVQLVESGGGLVQAGGSLRLSCAASGSTFAQYAMGWYRQAPAKERELVAVISKRGGRTYYADSVKGRFTISRDNGKNTVYLQMNSLKPEDTAGYYCAADSGGPGYAMDYWGQGTQVTVSS,high polyreactivity
17,QVQLVESGGCLVQAGGSLRLSCAASGRTFLANAMGWYRQAPGKERELVAAITWSGGRTNYADSVKGRFTISRDNAKNTVYLQMNSLKPEDTAVYYCAADIFYEQVVGGTDVGYHDFDYWGQGTQVTVSS,low polyreactivity
18,QVQLVESGGGLVQAGGSLRLSCAASGGIFIFYAMGWYRQAPGKERELVAAISNVSSTNYADSVKGRFTISRDNAQNTVYLQMNSLKPEDTAVYYCNAVCVPSEYYSWGQGSQVTVSS,low polyreactivity
19,QVQLVESGGGLVQAGGSLRLSCAASGIILAGYGMGWYRQAPGKERELVAAINGCGGSTYYADSVKGRFTISRDNAKNTVYLQMNSLKPEDTAVYYCATDWWSGLYYYWGQGTQVTVSS,high polyreactivity
20,KVQLVESVGGLVQAGGSLRLSCAASGSIFRGNAIGWYRQAPGKERQLVAAISNSSGTTYYADSVKGRFTISRDNAKNTVYLQMNSLKPEDTAVYYCATRYYRGYVRGTHHVGGYYYRGQGTQVTVSS,low polyreactivity
21,QVQLVESGGGLGQAGGSLRLSCAASGRIFIDYAMGWYRQAPGKERELVAAITYSTGGTYYGDSVKGRFTISRDNAKNTVYLQMNSLKPEDTAVYYCNATYVWPGRRRDGYWGQGTQVTVSS,low polyreactivity

row,Sequence,polyreactivity (PSR sort gate)
1,QVQLVESGGGLVQAGGSLRLSGAASGRTFGYYAMGWYRQAPGKERELVAAISRGGSTYYADSVKGRFTISRDNAKNTVYLQMNSPKPEDTAVYYCAADYWGYGPEMGYWGQGTQVTVSS,low polyreactivity
2,QVQLVESGGALVQAGGSLRLSCAASGRIFIVYAMGWSRQAPGKERDLVAAITSSGGGTYYADSVKGRFTISRDNAKNTVYLQMNSLKQEDSAVFYCATRYPYRPGYEYWGQGTQVTVSS,low polyreactivity
3,QVQLVESGGGLVQAGGSLRLSCAPSGSTFYKYVMGWYRQAPGKERELVAAISQGGSSTYYADSVKGRFTISRDNAKYTVYVLMNSLKPEDTAVYYCAAQYWWWSRFEYDSWGQGTQVTVSS,low polyreactivity
4,QVQLVESGGGLVQAGGSLRLSCAASGIIFRRYAMGWYRQAPGKERELVAAIRTSGGNTYYADSVKRRFTISRDNAKNTVYLQMNSLKPEDTAVYYCAARKYHYRYGYWGQGTQVTVSS,high polyreactivity
5,QVQLVESGGGLVQAGGSLRVSCAASGSTFGGNAMGWYRQAPGKERELSTYYADSVKGRFTISRDNAKNTVYLQMNSLKPEDTAVYYCNTENFYGSDIFDSWGQGTQVTVSS,low polyreactivity
6,QVQLQESGGGLVQAGGSLRLSCAASGSIFADVQMGWYRQAPGKERELVASINFRGTTTYNADSVKGRITISRDNSKNTVYLQMSSLKPEDTAVYYCSVGRSEGGDYAYWGQGTHVTVSS,low polyreactivity
7,QVQLVESGGGLVQAGGSLRLSCAASGRIFSINAMGWYRQAPGKEREFVATISDRGSTTSYADSVKGRFTISGDNAKNTVDLQMNSLKPDDTAVYYCAARSYYRYDYWGQGTQVTVSS,high polyreactivity
8,QVQLVESGGCLVQAGGSLRLSCAASGRIFHSNAMGWYRQAPGKERELVAAISTAGSTYYADSVKGRFTISRDNAKNTVYLQMNSLKPEDTAVYYCNAESPWWWEYDSWGQGTQVTVSS,high polyreactivity
9,QVQLVESGGGLVQAGGSLRLSCAASGRIFYSYVMGWYRQAPGKERELVAAIRWGGGSTYYADSVKGRFTISPDNPKNTVYLQMNSLKPEDTAVYYCAAAYNWRKYDYWGQGTQVTVSS,high polyreactivity
10,QVHLVESGVGLVQAGGSLRLSCASSGSTYKPNALGWYSQAPGKESEFVAAITSGSTYYADTVKGRYTISRDNAKYNVYLQMNSLKPEDTAVYYCATSVRGKSPYRKSGSYYYWGQGTQVTVSS,high polyreactivity
11,QVQLVESGGGLVQAGGSLRLSCAASGITFSLYAMGWYRQAPGKERELVAAITRSGGSTYYADSVKGRFTISRDNAKNTVYLQMNSLKPEDTAVYYCAALRPGVRRYYYWGHGTQVTVSS,high polyreactivity
12,QVQLVESGGGLVQAGGSLRLSCAASGRIFVRYAMGWYRQAPGKESEFVADIDGGGGRTYADSVKGRFTISRDNAKNTVYLLMNSLKPEDTAVYYCNAYVYSIHWCDLYWSEYDYWGQGTQVTVSS,high polyreactivity
13,QVQLVESGGGLVQAGGSLRLSCAASGRTFERNAMGWYRQAPGKERELVAAITWSGVSTYYADSVKGRFTISRDNAKNTVYLQMNSLKPEDTAVYYCAADWDWRFHRMNYWGQGTQVTVSS,low polyreactivity
14,QVQLVESGGGLVQAGGSLRLSCADSGRIFWTNAMVWYRQAPGKERELVAAISYNGASTFYADSVKGRFTISRDNAKNTVSLQMNSLKPEDTAVYYCNAYSSRYRYNYWGQGTQVTVSS,high polyreactivity
15,QVQLVESGGGLVQAGGSRRLSCAASGRIFGVYAMGWYRQAPGKERELVAAIDRRGGRTYYADSVKGRFTISRDNAKNTVYLQMNSLKPEDTAVYYFATARYRADMGYWGQGTQVTVSS,high polyreactivity
16,QVQLVESGGGLVQAGGSLRLSCAASGYIFGYNTMGWYRQAPGKERELVATINWRGSRTYYADSVKARFTISLDNAKNTVYLQMNSLKPEDTAVYYCNADHQFRSSVSGDHDYWGQGTQVTVSS,high polyreactivity
17,QVQLVESGGGLVQAGGSLRLSCAASGITFQGYTMGWYRQAPGKEWELVAAISSNGGRTYYADSVKGRFTISRDNAKNTVYLQMNSLKPEDTAVYYCAARSFWTYRSGGPSDYYYWGQGTQVTVSS,high polyreactivity
18,QVQLVESGGGLVQAGGSLRLSCGASGFFFEPNSMGWYRQATGKERELVAAISSGGSTYADSVKGRFTISRDNAKNPVYLQMNSLKPEDTAVYYCAARPNQSYYGLYYYWGQGTQVTVSS,low polyreactivity
19,QVQIVESGGGLVQAGGSLRVSCAASGITFGNYDMGWYRQAPGKERELVAAITGSGGRTYYADSVKGRFTISRDNEKNTVYLQMNSLKPEDTAVYYCNRRQYGRKKQYDYWGQGTQVTVSS,high polyreactivity
20,QVQLVESGGGLVQAGGSLRLSCAASGSTFDYYTMGWYRQAPGKERELVAAITSGGSTNYADSVKGRFTISRDNAKNTVYLQMNSLKPEDTAVYYCAADEWYNNYNCTTYGPEYDSWGQGTQVTVSS,low polyreactivity
